According to patent US20240287172A1 (SCIRHOM, published 2024):

T1: hiR2-FL-S583A-T7 (human, UniProt Q6PJF5 1-856)
T1 sequence: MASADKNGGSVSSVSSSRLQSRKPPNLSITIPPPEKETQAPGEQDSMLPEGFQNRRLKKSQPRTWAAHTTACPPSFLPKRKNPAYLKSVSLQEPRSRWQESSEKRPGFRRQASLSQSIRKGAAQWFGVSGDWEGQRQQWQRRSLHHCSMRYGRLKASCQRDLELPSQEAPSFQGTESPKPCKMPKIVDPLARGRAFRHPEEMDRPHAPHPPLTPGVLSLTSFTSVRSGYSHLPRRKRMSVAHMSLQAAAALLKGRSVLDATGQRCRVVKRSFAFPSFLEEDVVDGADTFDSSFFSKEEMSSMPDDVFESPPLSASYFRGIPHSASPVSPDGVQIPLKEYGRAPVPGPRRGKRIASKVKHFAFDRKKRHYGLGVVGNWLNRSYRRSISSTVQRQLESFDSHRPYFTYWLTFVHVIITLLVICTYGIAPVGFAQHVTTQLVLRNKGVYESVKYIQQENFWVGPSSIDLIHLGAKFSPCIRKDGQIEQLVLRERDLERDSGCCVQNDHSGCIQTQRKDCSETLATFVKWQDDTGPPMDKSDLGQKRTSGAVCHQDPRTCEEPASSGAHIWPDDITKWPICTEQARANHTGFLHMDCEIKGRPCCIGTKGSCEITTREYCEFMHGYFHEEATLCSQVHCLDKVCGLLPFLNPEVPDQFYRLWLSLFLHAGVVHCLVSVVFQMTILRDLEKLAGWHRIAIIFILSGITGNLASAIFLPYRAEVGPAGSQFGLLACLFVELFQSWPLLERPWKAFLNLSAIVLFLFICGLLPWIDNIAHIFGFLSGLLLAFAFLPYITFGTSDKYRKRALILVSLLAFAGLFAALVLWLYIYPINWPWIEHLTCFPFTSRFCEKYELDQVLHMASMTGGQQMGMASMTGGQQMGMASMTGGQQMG

T2: hiR2-FL-K525A-T7 (human, UniProt Q6PJF5 1-856)
T2 sequence: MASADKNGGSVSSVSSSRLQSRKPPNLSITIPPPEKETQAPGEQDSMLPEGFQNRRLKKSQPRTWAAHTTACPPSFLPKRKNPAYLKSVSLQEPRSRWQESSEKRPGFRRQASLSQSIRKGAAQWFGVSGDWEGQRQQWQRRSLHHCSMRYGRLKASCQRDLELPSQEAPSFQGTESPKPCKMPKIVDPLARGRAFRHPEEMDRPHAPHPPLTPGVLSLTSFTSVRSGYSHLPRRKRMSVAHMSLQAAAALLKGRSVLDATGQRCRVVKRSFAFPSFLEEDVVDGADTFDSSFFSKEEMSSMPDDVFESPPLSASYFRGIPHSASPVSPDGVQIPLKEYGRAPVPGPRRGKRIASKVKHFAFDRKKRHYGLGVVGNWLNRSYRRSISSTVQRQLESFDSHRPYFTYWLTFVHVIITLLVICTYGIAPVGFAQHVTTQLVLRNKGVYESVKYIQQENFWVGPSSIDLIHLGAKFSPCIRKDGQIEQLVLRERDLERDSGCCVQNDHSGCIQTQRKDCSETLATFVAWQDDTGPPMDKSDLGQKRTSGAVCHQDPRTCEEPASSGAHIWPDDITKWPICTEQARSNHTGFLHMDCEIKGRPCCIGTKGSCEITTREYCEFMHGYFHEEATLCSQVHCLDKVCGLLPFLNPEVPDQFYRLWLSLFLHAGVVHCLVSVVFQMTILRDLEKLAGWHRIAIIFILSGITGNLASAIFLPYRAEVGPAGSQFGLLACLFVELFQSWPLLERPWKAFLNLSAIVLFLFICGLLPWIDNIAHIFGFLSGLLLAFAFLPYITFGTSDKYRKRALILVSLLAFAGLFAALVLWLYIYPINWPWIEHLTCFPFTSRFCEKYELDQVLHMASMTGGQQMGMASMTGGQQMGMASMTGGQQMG


Columns and labels:
[1] = biological target: T1, hiR2-FL-S583A-T7; assay: FACS on MEF-DKO cells expressing the variant, 3 µg/ml antibody
Summary of the method: (§1)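 Cells were stained with purified antibody at 3 μg/ml in FACS buffer for 1 hour on ice, with buffer-only controls. Bound antibody was detected with PE-conjugated goat anti-mouse IgG F(ab′)2 at 1:100, 1 hour on ice in the dark, followed by flow cytometry.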

[2] = biological target: T2, hiR2-FL-K525A-T7; assay: as above
Summary of the method: as §1

Row | Binder | loss of binding vs wild type [1] [%] | loss of binding vs wild type [2] [%]
1 | antibody 3 (antibody, V domains shown, mouse IgG, kappa light chain; also called clone #3; purified antibody 3) VH: QVTLKESGPGILQPSQTLSLTCSFSGFSLTTFAMGIGWVRQPSGKGLEWLAHIWWDGEKYNNPVLKSRLTISKDTSKNQVFLRIANVDTPDTATYYCARISSIYYIIDNWGQGTSVTVSS VL: DIVLTQSPATLSVTPGHSVSLSCRASQSISNNLHWYQKKSHESPRLLIKYVSQSISGIPSRFSGSGSGTDFTLSINSVETEDFGMYFCQQSYNWPLTFGAGTKLELK | ≥ 30 | 
2 | antibody 48 (antibody, V domains shown, mouse IgG, kappa light chain; also called clone #48; purified antibody 48) VH: QVQLQQSGTELVRPGTSVKVSCKASGYAFTNYLIEWVKQRPGQGLEWIGVINPGSGFTKYNEKFKGKATLTADKSSSTVYMHLSSLTSEDSAVYFCARGLYRAMDYWGQGTSVTVSS VL: DIQMTQSPASQSASLGESVTITCLASQTIATWLAWYQQKPGKSPQLLIYGATTLADGVPSRFSGGGSGTKFSFKISSLQAEDFVSYYCQQLYSTPYTFGGGTKLEIK |  | ≥ 30
